Tests used:
human TGFβ1 (human) = human TGFβ1 (human) (UniProt P01137)
human TGFβ3 (human) = human TGFβ3 (human) (UniProt P10600)
Chain of UniProt P10600 (P10600 301-412 limits assumed): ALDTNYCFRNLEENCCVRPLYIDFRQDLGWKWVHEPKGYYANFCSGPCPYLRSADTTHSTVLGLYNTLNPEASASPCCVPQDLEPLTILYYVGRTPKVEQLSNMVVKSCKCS

Chain of UniProt P01137 (P01137 279-390 limits assumed): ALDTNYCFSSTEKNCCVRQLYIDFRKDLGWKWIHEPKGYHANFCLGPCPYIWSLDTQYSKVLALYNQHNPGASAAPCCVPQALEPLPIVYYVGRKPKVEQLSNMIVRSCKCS

M7824
IC50, inhibition of TGFβ1-induced Smad2 reporter activity (human TGFβ1 (human)): 0.91 nM | IC50, inhibition of TGFβ3-induced Smad2 reporter activity (human TGFβ3 (human)): 1.95 nM

— patent US20240360219A1
